The test system of assay [1] is human dispersed islet cells. The experiment in a line: Immunofluorescence: F-actin intensity in glucagon+ human dispersed islet cells.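 Note: ImageJ intensity within ROI drawn around each glucagon+ cell.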 The following applies: human cells; individual values; Figure 3E; listed as E. It is filed as cell-based. How it is done:
(§1) Coverslips were treated with WCDD301, preclustered Ephrin-A5 Fc, or preclustered Fc in the following sequential order: KRBH (11 mM glucose, 30 minutes), KRBH (1 mM glucose, 60 minutes), KRBH (1 mM glucose, 30 minutes), and KRBH (11 mM glucose, 60 minutes). After treatment, coverslips were washed once in PBS, fixed in 2% paraformaldehyde in PBS (30 minutes), and again washed in PBS. […] Following wash in PBS, coverslips were incubated in a mixture of Alexa Fluor 555 Phalloidin (Cell Signaling Technology, catalog 8953) and secondary antibodies (goat anti-rabbit Alexa Fluor 488, catalog A-21094, 1:1,000, Molecular Probes; and goat anti-mouse Alexa Fluor 633, catalog A21052, 1:1,000, Life Technologies) for 1 hour at RT. Both primary and secondary antibodies were diluted in blocking buffer containing 0.05% Tween 20. Coverslips were washed using PBS and counterstained by using DAPI (1:1,000) for 10 minutes. Following 2 washes in PBS, coverslips were mounted on glass slides using ProLong Glass Antifade Mountant (Invitrogen, catalog P36980). Images were captured using the Zeiss LSM880 microscope with a Plan-Apochromat 63× 1.4 NA objective lens by setting dual-band dichroic/filter for 405, 488, 561, and 633 nm laser excitation. For each slide, 25–30 fields of view were scanned, and in each field of view, 3–5 cells were imaged. […] Values of intensity were compared among groups using 1-way ANOVA, α = 0.05.

In assay [2] the test system is murine dispersed islet cells. The experiment in a line: Insulin secretion from murine dispersed islet cells. The format is cell-based, mouse. The following applies: Ephrin-A5 Fc (E), one value per mouse, Figure 1G, listed as E. On the procedure:
(§2) Pancreata of nondiabetic C57BL/6J mice were digested using collagenase P (Roche Diagnostics, catalog 11213873001), and islets were manually picked up using a stereomicroscope (ZEISS Stemi 305). […] Isolated mouse islets or provided human islets were dispersed as described ([28]). Briefly, 100–120 islets were washed 2 times using modified HBSS, then dispersed in 600 μL Accutase (Innovative Cell Technologies, catalog AT-104) by gently pipetting up and down for 7 minutes at 37°C. […] Following refreshing of KRBH, cells were dispensed in 8 microfuge tubes (2,000 cells/tube) and treated with WCDD301, preclustered Ephrin-A5 Fc, or preclustered Fc in the presence or absence of the competitive inhibitor of EphA4 receptor, rhyncophylline ([60]) (MilliporeSigma, catalog SML2345). In the presence or absence of these effectors, secretion assay was performed sequentially as shown in Supplemental Table 5. […] Preclustering of Ephrin-A5 Fc was done by mixing Ephrin-A5 Fc or Fc alone (BioLegend, catalog 790102) with anti-Fc antibody (Invitrogen, catalog A16086) (1:10 molar ratio) 20 minutes before treatment ([62]). […] Shedding of cleaved EphA4 was measured from the cell culture medium. Experiments were performed by dispersion of 200 islets, and EphA4 levels in media were measured by EphA4 ELISA (ABclonal, catalog RK06572).

The subject of assay [3] is isolated islets of donors with T1D. The assay is described as follows: Insulin secretion from isolated islets of donors with T1D.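 Note: insulin concentration in collected medium by Lumit immunoassay.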 The format is cell-based, human. The note with it: isolated islets, T1D donors, one value per donor, Figure 2I, listed as E. How it is done: (§3) The Integrated Islet Distribution Program provided us human donor islets with their characteristics (Supplemental Table 6). Islets were centrifuged at 500g for 3 minutes, resuspended in CMRL 1066 medium (Gibco, catalog 1150-037) containing 11 mM glucose, and rested in an incubator overnight.
(§4) For the hormone secretion assay, islets or dispersed islet cells were adapted in KRBH buffer containing 11 mM glucose for 1 hour. Then, after 2 washes in HBSS containing 11 mM glucose, islets or cells were treated in the following sequential order in the presence or absence of WCDD301: incubation in KRBH (1 mM glucose, 30 minutes) followed by medium collection, incubation in KRBH (11 mM glucose, 30 minutes) followed by medium collection.

The subject of assay [4] is mouse dispersed islet cells. The experiment in a line: Immunofluorescence: F-actin intensity in glucagon+ mouse dispersed islet cells.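 Note: ImageJ intensity within ROI drawn around each glucagon+ cell.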 The note with it: mouse cells; individual values; Figure 3F; listed as E. The format is cell-based. On the procedure: as §1
Assay [5] deals with dispersed islet cells of donors with T1D. The experiment in a line: Insulin secretion from dispersed islet cells of donors with T1D.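 Note: insulin concentration in collected medium by Lumit immunoassay.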 The following applies: dispersed islet cells, T1D donors, one value per donor, Figure 2J. It is filed as cell-based, human. How it is done: as §2, §3, §4
The test system is the same in assay [6]. The experiment in a line: Glucagon secretion from dispersed islet cells of donors with T1D. It is filed as cell-based, human. The following applies: dispersed islet cells, T1D donors, one value per donor, Figure 2H, listed as E. How it is done: as §2, §3, §4
In assay [7] the test system is isolated islets of donors with T1D. The assay is described as follows: Glucagon secretion from isolated islets of donors with T1D. It is filed as cell-based, human. The note with it: isolated islets, T1D donors, one value per donor, Figure 2G, listed as E. On the procedure: as §3, §4
Assay [8] deals with murine dispersed islet cells. The experiment in a line: Glucagon secretion from murine dispersed islet cells. It is filed as cell-based, mouse. The following applies: for Secretion of glucagon: E + Rhy (2.5 µM), Figure 1H; for Secretion of glucagon / Relative secretion of glucagon: listed as E; for Relative secretion of glucagon: Ephrin-A5 Fc (E), one value per mouse, Figure 1F. On the procedure:
as §2

Assay [9] concerns human donor dispersed islet cells. The experiment in a line: Somatostatin secretion from non-diabetic human donor dispersed islet cells. The format is cell-based. The following applies: Ephrin-A5. On the procedure: as §2, §3, §4
Assay [10] has as its system mouse dispersed islet cells. The experiment in a line: Immunofluorescence: EphA4 intensity in glucagon+ mouse dispersed islet cells.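 Note: ImageJ intensity within ROI drawn around each glucagon+ cell.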 The following applies: mouse cells; individual values; Figure 3H; listed as E. It is filed as cell-based. How it is done: as §1
Assay [11] concerns human dispersed islet cells. The experiment in a line: Immunofluorescence: EphA4 intensity in glucagon+ human dispersed islet cells.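 Note: ImageJ intensity within ROI drawn around each glucagon+ cell.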 The format is cell-based. The note with it: human cells; individual values; Figure 3G; listed as E. On the procedure: as §1

Several values for one entry are separate records, joined by “and”; a condition that tells them apart may be missing. Identical values can stand only once.

B1: Ephrin-A5 Fc: recombinant mouse Ephrin-A5 Fc; natural ligand of EphA4 receptors (protein)
chain: QDPGSKVVADRYAVYWNSSNPRFQRGDYHIDVCINDYLDVFCPHYEDSVPEDKTERYVLYMVNFDGYSACDHTSKGFKRWECNRPHSPNGPLKFSEKFQLFTPFSLGFEFRPGREYFYISSAIPDNGRRSCLKLKVFVRPTNSCMKTIGVHDRVFDVNDKVENSLEPADDTVHESAEPSRGEN
modifications: left off: Fc, end not stated, kept
notes: recombinant mouse Ephrin-A5 Fc; natural ligand of EphA4 receptors
In the case of B1, the F-actin intensity is 9.8 and 7.6 and 4.7 and 8.3 and 7.5 and 5.1 and 5.9 and 5.2 in [1]; 8.2 and 11.3 and 9.4 and 8.4 and 9.8 and 8.6 and 5.2 and 8.9 and 7.7 in assay [4]. Also, the “Relative secretion of insulin” value in assay [2] (Glucose (1 mM)) is 0.75 and 0.2 and 0.32 and 0.45 and 0.69; in assay [2] (Glucose (11 mM)), 1.02 and 1 and 0.85 and 0.8 and 0.96. The Secretion of insulin is 0.075 and 0.07 in assay [3] (1 mM glucose); 0.11 and 0.05 in assay [3] (11 mM glucose); 0.06 in assay [5] (1 mM glucose); 0.10 and 0.05 in assay [5] (11 mM glucose, listed as E). For the same molecule, the Secretion of glucagon was 14.105 and 25.56 in assay [6] (1 mM glucose); 38.15 and 32.58 in assay [6] (11 mM glucose); 40.65 and 55.72 in [7] (1 mM glucose); 37.25 and 40.79 in assay [7] (11 mM glucose); 0.8 and 0.85 and 0.95 and 1.05 and 1 in assay [8] (Glucose (1 mM)); 1.1 and 1.07 and 1.2 and 1.05 and 1.15 in assay [8] (Glucose (11 mM)). Moreover, the “Effect on arginine-stimulated glucagon secretion” value in assay [8] (1 mM and 11 mM glucose, Arg 25 mM, 301 3 µM, E 4 µg/mL, Supplemental Figure 2) is recorded as “its effect was suppressed”. In addition, the “Relative secretion of glucagon” value is 0.85 and 0.95 and 1.05 and 0.7 and 0.8 in [8] (Glucose (1 mM)); 1.01 and 0.8 and 0.9 and 0.85 and 0.94 in assay [8] (Glucose (11 mM)). Besides, the “Somatostatin secretion (Supplemental Figure 4D; quantity not given)” value in assay [9] is 1908.4 and 2981.9 and 2200.0. Further, the EphA4 intensity in assay [10] was 18.2 and 16.2 and 19.0 and 16.0 and 17.1 and 20.0 and 17.0 and 15.6 and 21.0 and 18.0 and 33.1 and 50.6 and 24.4 and 25.7; in assay [11] it was 45.7 and 17.5 and 5.4 and 39.9 and 12.3 and 5.9 and 20.4 and 7.4 and 4.4.

Values taken from paper PMC10906223 (JCI Insight, 2024).
